Biological target: recombinant VE-cadherin-Fc (UniProt P33151)
Assay: atomic force microscopy

binding activity (binding probability by AFM): 61%
Substance: recombinant VE-cadherin-Fc (from UniProt P33151) (Fc fusion)

From PMC10563049
